Assay results reported in PMC5347692, “Serpin E2 promotes breast cancer metastasis by remodeling the tumor matrix and polarizing tumor associated macrophages” (Oncotarget, 2016).

Biological target: T1, human recombinant tPA (human, UniProt P00750 36-562)
T1 construct: The sentence 'Human recombinant serpinE2 and tPA were purchased from R&D' is read as human for both; source: bought: R&D
Assay: SDS-stable complex seen by western blot; recombinant serpinE2 and tPA bound to each other beforehand, complex immunoprecipitated with Ab11 and Protein G, western blot with a serpinE2-specific antibody; complex band above uncomplexed serpinE2
Settings: both partners purified

T1 sequence (P00750 36-562): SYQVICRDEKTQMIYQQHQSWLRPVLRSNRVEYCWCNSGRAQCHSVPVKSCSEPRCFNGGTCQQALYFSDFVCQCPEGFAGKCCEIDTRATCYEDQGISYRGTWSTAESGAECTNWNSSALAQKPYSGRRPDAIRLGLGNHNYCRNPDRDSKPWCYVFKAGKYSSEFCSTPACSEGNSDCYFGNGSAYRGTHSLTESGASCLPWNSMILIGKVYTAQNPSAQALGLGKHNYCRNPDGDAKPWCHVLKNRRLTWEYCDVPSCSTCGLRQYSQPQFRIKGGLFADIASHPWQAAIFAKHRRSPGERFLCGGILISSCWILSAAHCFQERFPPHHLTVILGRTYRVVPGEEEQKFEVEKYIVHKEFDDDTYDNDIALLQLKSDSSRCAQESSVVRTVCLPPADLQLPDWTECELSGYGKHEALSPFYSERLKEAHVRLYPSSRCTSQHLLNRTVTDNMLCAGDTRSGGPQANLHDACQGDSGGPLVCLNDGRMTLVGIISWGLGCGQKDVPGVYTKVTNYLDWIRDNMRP

binding result: binds
B1: human recombinant serpinE2 (natural protein, UniProt P07093 20-398, looked up)
chain: SHFNPLSLEELGSNTGIQVFNQIVKSRPHDNIVISPHGIASVLGMLQLGADGRTKKQLAMVMRYGVNGVGKILKKINKAIVSKKNKDIVTVANAVFVKNASEIEVPFVTRNKDVFQCEVRNVNFEDPASACDSINAWVKNETRDMIDNLLSPDLIDGVLTRLVLVNAVYFKGLWKSRFQPENTKKRTFVAADGKSYQVPMLAQLSVFRCGSTSAPNDLWYNFIELPYHGESISMLIALPTESSTPLSAIIPHISTKTIDSWMSIMVPKRVQVILPKFTAVAQTDLKEPLKVLGITDMFDSSKANFAKITTGSENLHVSHILQKAKIEVSEDGTKASAATTAILIARSSPPWFIVDRPFLFFIRHNPTGAVLFMGQINKP
notes: serpinE2 (PN-1, protease nexin-1), human, recombinant, bought; With tPA it forms the serpin/protease complex that is seen as a band above uncomplexed serpinE2 on the western blot; also called PN-1; purified human serpinE2; source: bought: R&D
